This note sets out measurements from patent US20180074079A1.

Bounds are passed on as bounds.

The target in assay [1] is rHDL bearing apoA-IW19:A136 (human) (UniProt P02647). The assay can be described thus: FRET exchange assay, rHDL to lipid-free protein 1:5 molar, 37 C.
The target is the same in assay [2]. The assay can be described thus: FRET exchange assay, biphasic fit.
For assay [3], the target named is HDL in human plasma (human). The assay can be described thus: EPR, center peak amplitude over time, 0.3 mg/ml probe in plasma of patient D1.
The target of assay [4] is HDL in human plasma (human). Description: EPR, increasing probe concentration in patient plasma.
In assay [5] the target is HDL in human plasma (human). Description: EPR, frozen and thawed plasma with higher TG concentration.
Assay [6] addresses HDL in human plasma (human). Description: EPR, frozen and thawed plasma with higher TG concentration, third freeze-thaw.
Assay [7] concerns the target HDL in human plasma (human). Description: EPR, center peak amplitude over time, 0.3 mg/ml probe in plasma of patient M1.
Assay [8] deals with HDL in human plasma (human). Description: EPR, center peak amplitude over time, 0.3 mg/ml probe in plasma of patient N1.
For assay [9], the target named is HDL in human plasma (human). The assay can be described thus: EPR, frozen and thawed plasma.
For assay [10], the target named is rHDL bearing apoA-IW19:A136 (human) (UniProt P02647). Description: FRET (Trp19 to AEDANS136) exchange assay, rHDL to lipid-free protein 1:5 molar, 37 C.
In assay [11] the target is 9.6 nm POPC rHDL generated with Alexa 350 labeled apoA-I (human) (UniProt P02647). Description: displacement/exchange, rHDL apoA-I to lipid-free apoA-I 1:5 molar, 37 C, NDGGE fluorescence.
9.6 nm POPC rHDL generated with Alexa 350 labeled apoA-I (human), sequence (P02647 25-267): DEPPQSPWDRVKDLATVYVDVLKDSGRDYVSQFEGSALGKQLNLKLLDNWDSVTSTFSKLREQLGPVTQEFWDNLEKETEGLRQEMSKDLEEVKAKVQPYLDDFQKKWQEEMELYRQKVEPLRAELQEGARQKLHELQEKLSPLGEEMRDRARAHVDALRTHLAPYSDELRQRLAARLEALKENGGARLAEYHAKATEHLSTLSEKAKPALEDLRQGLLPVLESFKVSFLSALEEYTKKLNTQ

rHDL bearing apoA-IW19:A136 (human), sequence (P02647 other isoform, or with tags, fused parts or gaps): as the sequence (P02647 25-267) above, with W8F, V19W, W50F, W72F, W108F, E136C counted along it

Consider “Trp Null apoA-I oxidized by peroxynitrite (from UniProt P02647 25-267)”, for which, in assay [1], the exponential relaxation time of exchange (t) was determined as 0.67 h.

On to “Trp Null apoA-I oxidized by the MPO-H2O2-nitrite system (from UniProt P02647 25-267)”, for which, in assay [2], the exchange impaired population came to 57.3% and the unaffected population worked out at 42.7%. In assay [1], this substance registered an exponential relaxation time of exchange (t1) of 0.92 h and an exponential relaxation time of exchange (t2) of 18.8 h.

For “apoA-ISL217 (apoA-I bearing a G217C mutation, cysteine derivatized with a thiosulfonate linked nitroxide spin label) (from UniProt P02647 25-267)”, the time to maximal binding (patient D1) in [3] amounted to 10 min. For the same substance, the saturating concentration in assay [4] turned out to be 1.9 mg/mL. In addition, the decrease in EPR observable binding after freeze-thaw, plasma with higher TG in assay [5] was determined as 15%. In assay [6], this substance gave a decrease in EPR observable binding after freeze-thaw, plasma with higher TG of 25%. Besides, the time to maximal binding (patient M1) in assay [7] stood at 8 min. Further, the time to binding (patient N1) in assay [8] is < 5 min. In [9], this substance gave a reduction of rate and degree of binding after a freeze-thaw cycle of 10%; a reduction of rate and degree of binding after the third freeze-thaw of 20%.

Regarding “Trp Null apoA-I (four endogenous tryptophans substituted for phenylalanine) (from UniProt P02647 25-267)”, the exponential relaxation time (time to 50% maximal exchange, τ) in [10] was 0.94 h.

With “unlabeled lipid-free apoA-I (from UniProt P02647 25-267)”, the release of Alexa350 labeled apoA-I from rHDL into the lipid-free pool in assay [11] is > 90%.
